Experimental data reported in patent publication US20190194299A1.

How the values were obtained:
[1] = target: Human DPP4 on stable 293T cells (293T-hDPP4) (human) (UniProt P27487)
[2] = target: S1(349-590)-hFc (MERS-CoV; human) (UniProt K9N5Q8); experiment: BLI (Octet), wild type RBD-hFc

Substance: S1(349-590)-hFc (from UniProt K9N5Q8 349-590) (Fc fusion)
- EC50 [1]: 0.015 mg/L

Substance: Recombinant soluble human DPP4 (from UniProt P27487 29-766) (receptor)
- Kd [2]: 0.0214 µM
